Measurements from US20210300992A1 (Stanford University, published 2021).
Blank lines part the entries; values can stand above or below the binder they belong to.

B4: wild-type human LIFR displayed on the surface of yeast (receptor)
chain: QKKGAPHDLKCVTNNLQVWNCSWKAPSGTGRGTDYEVCIENRSRSCYQLEKTSIKIPALSHGDYEITINSLHDFGSSTSKFTLNEQNVSLIPDTPEILNLSADFSTSTLYLKWNDRGSVFPHRSNVIWEIKVLRKESMELVKLVTHNTTLNGKDTLHHWSWASDMPLECAIHFVEIRCYIDNLHFSGLEEWSDWSPVKNISWIPDSQTKVFPQDKVILVGSDITFCCVSQEKVLSALIGHTNCPLIHLDGENVAIKIRNISVSASSGTNVVFTTEDNIFGTVIFAGYPPDTPQQLNCETHDLKEIICSWNPGRVTALVGPRATSYTLVESFSGKYVRLKRAEAPTNESYQLLFQMLPNQEIYNFTLNAHNPLGRSQSTILVNITEKVYPHTPTSFKVKDINSTAVKLSWHLPGNFAKINFLCEIEIKKSNSVQEQRNVTIKGVENSSYLVALDKLNPYTLYTFRIRCSTETFWKWSKWSNKKQHLTTEAS
notes: also called LIFR wild-type (WT); wild-type LIFR
B5: LIFR CBMI-Ig-like-CBMII wild-type Fc fusion homodimer (Fc fusion)
chain: QKKGAPHDLKCVTNNLQVWNCSWKAPSGTGRGTDYEVCIENRSRSCYQLEKTSIKIPALSHGDYEITINSLHDFGSSTSKFTLNEQNVSLIPDTPEILNLSADFSTSTLYLKWNDRGSVFPHRSNVIWEIKVLRKESMELVKLVTHNTTLNGKDTLHHWSWASDMPLECAIHFVEIRCYIDNLHFSGLEEWSDWSPVKNISWIPDSQTKVFPQDKVILVGSDITFCCVSQEKVLSALIGHTNCPLIHLDGENVAIKIRNISVSASSGTNVVFTTEDNIFGTVIFAGYPPDTPQQLNCETHDLKEIICSWNPGRVTALVGPRATSYTLVESFSGKYVRLKRAEAPTNESYQLLFQMLPNQEIYNFTLNAHNPLGRSQSTILVNITEKVYPHTPTSFKVKDINSTAVKLSWHLPGNFAKINFLCEIEIKKSNSVQEQRNVTIKGVENSSYLVALDKLNPYTLYTFRIRCSTETFWKWSKWSNKKQHLTTEAS
notes: Homodimer through the Fc; The engineered counterparts use a 3x GS linker and a human IgG1 Fc; also called LIFR-WT-Fc; LIFR WT Fc; not shown: linker and Fc domain
B7: human leukemia inhibitory factor (LIF), soluble (ligand)
chain: not shown
notes: also called human LIF; soluble human LIF

Columns and labels:
[1] = target: B7; assay: KinExA with soluble human LIF; inhibitor titrated
Description: (§1) Binding of the purified LIF inhibitors to soluble LIF was tested using KinExA. Shown in FIG. 10 are binding results for: (1) a homodimer having a WT LIFR CBMI-Ig-like-CBMII Fc fusion as each monomer; (2) a homodimer having LIFR […] Fc as each monomer;

[2] = target: B4; assay: yeast-displayed receptor, no LIF added, anti-Fc detection by flow cytometry
[3] = target: T1, wild-type human gp130 CBM domain displayed on the surface of yeast (human, UniProt P40189 124-324); assay: as above
T1 construct: also called gp130 wild-type (WT); wild-type gp130
T1 chain: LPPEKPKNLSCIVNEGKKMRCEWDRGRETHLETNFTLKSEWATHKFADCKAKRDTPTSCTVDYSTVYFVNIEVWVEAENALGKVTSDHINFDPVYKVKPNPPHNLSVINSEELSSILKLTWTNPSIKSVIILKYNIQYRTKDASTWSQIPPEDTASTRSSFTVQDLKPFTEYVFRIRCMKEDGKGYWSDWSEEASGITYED

[4] = target: B7; assay: KinExA with soluble human LIF; KD calculated by the KinExA software. The unit is written as printed; the curve lies beside that of LIFR VPRVVAID Fc (Kd in pM)
Description: as §1
and (3) a homodimer having LIFR-gp130 V-E fusion Fc as each monomer. KD values calculated from KinExA software and fitted curves are shown.

[5] = target: B7; assay: yeast surface display, flow cytometry; soluble human LIF titrated (0.01 to 1000 nM), detected with a fluorescent antibody
Description: (§2) Binding to human LIF was measured via fluorescent antibody detection using flow cytometry.
Results for gp130 wild-type (WT) (circles), the “8M” variant (E4K-K5R-N14D-K45E-F46L-K83R-Y95D-N100S) (squares), and the ELDME variant (mutations in FIG. 4, panel A) (triangles) are shown.

[6] = target: B7; assay: yeast surface display, flow cytometry; Score column of the table of sorted gp130 CBM variants (the filing gives 100 pM and 1 nM human LIF for the gp130 binding scores)
[7] = target: B7; assay: yeast surface display, flow cytometry; soluble human LIF titrated (0.001 to 100 nM), detected with a fluorescent antibody
Description: as §2
Results for LIFR wild-type (WT) (circles), the “PDD” variant (L218P-N42D-N277D) (squares), and the […] variant (mutations in FIG. 4, panel A) (triangles) are shown.

[8] = target: B7; assay: yeast surface display, flow cytometry; score from summed fluorescence at 10 pM and 100 pM human LIF, normalized to wild-type and to expression
[9] = target: B5; assay: KinExA with soluble human LIF; KD calculated by the KinExA software
Description: as §1

EC50 (read off the curve) [1]: ~0.06 nM
binding result [2]: no binding
binding result [3]: no binding
Kd [4]: 30.8 nM
B1: LIFR CBMI-Ig-like-CBMII (VPRVVAID)-gp130 CBM (ELDME) Fc fusion homodimer (Fc fusion)
chain: QKKGAPHDLKCVTNNLQVWNCSWKAPSGTGRGTDYEVCIENRSRSCYQLEKTSIKIPALSHGDYEITINSLHDFGSSTSKFTLNEQNVSLIPDTPEILNLSADFSTSTLYLKWNDRGSVFPHRSNVIWEIKVLRKESMELVKLVTHNTTLNGKDTLHHWSWASDMPLECAIHFVEIRCYIDNLHFSGLEEWSDWSPVKNISWIPDSQTKVFPQDKVVPVGSDITFCCVSQEKVLSALIGRTNCPLIHLDGENVAIKVRNVSASASSGTNVVFITEDDIFGTVIFAGYPPDTPQQLNCETHDLKEIICSWNPGRVTALVGPRATSYTLVESFSGKYVRLKRAEAPTNESYQLLFQMLPNQEIYNFTLNAHNPLGRSQSTILVNITEKVYPHTPTSFKVKDINSTAVKLSWHLPGNFAKINFLCEIEIKKSNSVQEQRNVTIKGVENSSYLVALDKLNPYTLYTFRIRCSTETFWKWSKWSNKKQHLTTEASGGGGSGGGGSGGGGSGGGGSGGGGSLPPEKPKNLSCIVNEGKKMRCEWDRGRETHLETNFTLKSEWATHELADCKAKRDTPTSCTVDYSTVYFVNIEVWVEAENALGKVTSDHINFDPVDKVKPNPPHNLSVINSEELSSILKLTWTNPSIKSVMILKYNIQYRTKDASTWSQIPPEDTASTRSSFTVQDLKPFTEYVFRIRCMKEDGEGYWSDWSEEASGITYEDGSGSGSDKTHTCPPCPAPELLGGPSVFLFPPKPKDTLMISRTPEVTCVVVDVSHEDPQVKFNWYVDGVQVHNAKTKPREQQYNSTYRVVSVLTVLHQNWLDGKEYKCKVSNKALPAPIEKTISKAKGQPREPQVYTLPPSREEMTKNQVSLTCLVKGFYPSDIAVEWESNGQPENNYKTTPPVLDSDGSFFLYSKLTVDKSRWQQGNVFSCSVMHEALHNHYTQKSLSLSPGK
notes: also called LIFR-gp130 Fusion-Fc; LIFR-gp130 V-E fusion Fc

EC50 (read off the curve) [5]: ~10 nM
Score (binding score) [6]: 16
B2: 8M (receptor)
yeast-displayed receptor fragment: LPPKRPKNLSCIVDEGKKMRCEWDRGRETHLETNFTLKSEWATHELADCKAKRDTPTSCTVDYSTVYFVNIEVWVEAENALGRVTSDHINFDPVDKVKPSPPHNLSVINSEELSSILKLTWTNPSIKSVIILKYNIQYRTKDASTWSQIPPEDTASTRSSFTVQDLKPFTEYVFRIRCMKEDGKGYWSDWSEEASGITYED
notes: 8 mutations, all marked; also called 8M (Rnd 1); E4K-K5R-N14D-K45E-F46L-K83R-Y95D-N100S

Score (binding score) [6]: 22.1
B3: ELRDM (receptor)
yeast-displayed receptor fragment: LPPEKPKNLSCIVNEGKKMRCEWDRGRETHLETNFTLKSEWATHELADCKAKRDTPTSCTVDYSTVYFVNIEVWVEAENALGRVTSDHINFDPVDKVKPNPPHNLSVINSEELSSILKLTWTNPSIKSVMILKYNIQYRTKDASTWSQIPPEDTASTRSSFTVQDLKPFTEYVFRIRCMKEDGKGYWSDWSEEASGITYED
notes: 5 mutations, all marked

Binder: B4
EC50 (read off the curve) [7]: ~1 nM
Score (normalized binding score) [8]: 1.32

Binder: B5
EC50 (read off the curve) [1]: ~1 nM

binding result [2]: no binding
binding result [3]: no binding
B6: LIFR CBMI-Ig-like-CBMII (VPRVVAID)-gp130 CBM (ELDME) heterodimeric Fc fusion (Fc fusion)
chain 1: QKKGAPHDLKCVTNNLQVWNCSWKAPSGTGRGTDYEVCIENRSRSCYQLEKTSIKIPALSHGDYEITINSLHDFGSSTSKFTLNEQNVSLIPDTPEILNLSADFSTSTLYLKWNDRGSVFPHRSNVIWEIKVLRKESMELVKLVTHNTTLNGKDTLHHWSWASDMPLECAIHFVEIRCYIDNLHFSGLEEWSDWSPVKNISWIPDSQTKVFPQDKVVPVGSDITFCCVSQEKVLSALIGRTDCPLIHLDGENVAIKVRNVSASASSGTNVVFITEDDIFGTVIFAGYPPDTPQQLNCETHDLKEIICSWNPGRVTALVGPRATSYTLVESFSGKYVRLKRAEAPTNESYQLLFQMLPNQEIYNFTLNAHNPLGRSQSTILVNITEKVYPHTPTSFKVKDINSTAVKLSWHLPGNFAKINFLCEIEIKKSNSVQEQRNVTIKGVENSSYLVALDKLNPYTLYTFRIRCSTETFWKWSKWSNKKQHLTTEASGSGSGSDKTHTCPPCPAPELLGGPSVFLFPPKPKDTLMISRTPEVTCVVVDVSHEDPQVKFNWYVDGVQVHNAKTKPREQQYNSTYRVVSVLTVLHQNWLDGKEYKCKVSNKALPAPIEKTISKAKGQPREPQVYTLPPSREEMTKNQVSLWCLVKGFYPSDIAVEWESNGQPENNYKTTPPVLDSDGSFFLYSKLTVDKSRWQQGNVFSCSVMHEALHNHYTQKSLSLSPGK
chain 2: LPPEKPKNLSCIVNEGKKMRCEWDRGRETHLETNFTLKSEWATHELADCKAKRDTPTSCTVDYSTVYFVNIEVWVEAENALGKVTSDHINFDPVDKVKPNPPHNLSVINSEELSSILKLTWTNPSIKSVMILKYNIQYRTKDASTWSQIPPEDTASTRSSFTVQDLKPFTEYVFRIRCMKEDGEGYWSDWSEEASGITYEDGSGSGSDKTHTCPPCPAPELLGGPSVFLFPPKPKDTLMISRTPEVTCVVVDVSHEDPQVKFNWYVDGVQVHNAKTKPREQQYNSTYRVVSVLTVLHQNWLDGKEYKCKVSNKALPAPIEKTISKAKGQPREPQVYTLPPSREEMTKNQVSLSCAVKGFYPSDIAVEWESNGQPENNYKTTPPVLDSDGSFFLVSKLTVDKSRWQQGNVFSCSVMHEALHNHYTQKSLSLSPGK
notes: also called LIFR-gp130 heterodimeric Fc; LIFR-gp130 Heterodimeric Fc (Eng.)

Binder: B7
Kd [9]: 1.09 nM
